One test deals with recombinant human aFGF (human, UniProt P05230, 125I-labeled). Briefly: Scatchard plot of 125I-aFGF binding to KPTr2-2 cells (CHO-K1 expressing newt KGFR).
A further test has as its target bovine brain aFGF (bovine, UniProt P03968, 125I-labeled). As to the kind of experiment: chemical crosslinking (DSS) on CHO-K1 cells over-expressing newt KGFR, SDS-PAGE. Here is the method:
(§1) CHO cells transfected with pBJ5 vector (lane 1) or with newt KGFR expression vector (lanes 2–4) were crosslinked with ^125I-aFGF using 0.3 mM disuccinimidyl suberate (DSS). Excess amounts (500-fold) of aFGF (lane 3) or KGF (lane 4) were used to compete with ^125I-aFGF. Crosslinked products were analyzed on a 7.5% SDS-polyacrylamide gel.
(§2) To characterize the newt FGFR cDNA functionally, the newt KGFR were expressed in CHO-K1 cells. The mammalian expression vector, pBJ5, which contains a chimeric promoter derived from HTLV-I and SV40, was used to express the newt KGFR and FGFR2 cDNA. […] The crosslinked product can be successfully competed off with a 500-fold molar excess of cold aFGF or human recombinant KGF as shown in FIG. 11. The crosslinked product is absent in KPTr1-8, the CHO cells that were transfected with the pBJ5 vector alone. The crosslinked product thus appears to be specific. Similarly, a cell line over-expressing the human KGFR (T-1063-29-2 from S. A. Aaronson, NIH) was able to produce a somewhat smaller crosslinked product than the newt KGFR. Antibodies (both monoclonal and polyclonal) directed against a peptide from the carboxyl terminus of the newt FGFR2 are generated.

Another test concerns the target T1, human recombinant KGF (human, UniProt P21781).
T1 sequence: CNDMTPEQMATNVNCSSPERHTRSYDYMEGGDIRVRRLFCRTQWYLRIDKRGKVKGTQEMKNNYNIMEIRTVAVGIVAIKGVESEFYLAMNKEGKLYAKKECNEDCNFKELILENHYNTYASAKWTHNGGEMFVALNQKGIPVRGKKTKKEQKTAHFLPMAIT
As to the kind of experiment: competition of 125I-aFGF crosslinking on KPTr2-2 cells; competitor in 500-fold molar excess. Here is the method:
as §1, §2

B1: newt KGFR (KGFR isoform, IIIb, of newt FGFR2; two Ig-like loop variant), expressed on CHO-K1 cells (KPTr2-2) (receptor)
chain: RPSYNIAEDTTLEPEDANSSGDDEDDNDGSEDFTNDNNHMRAPYWTNTEKLEKKLHAVPAANTVKFRCPAGGNPTPSMRWLKNGKEFKQEHRIGGFKVRSQHFSLIMESVVPSDEGNYTCIMENEYGSINHTYHLDVVERSPHRPILQAGLPANTTTKVGGDAEFVCKVYSDAQPHIQWIRHFELNGSKIGPDGHPYLKVLKRSGINSSNAEVLTLHNVTEADRGQYTCKVSNYIGEANQSAWLTVLPASEKDEERELDSSSEYTEIAIYCVGGFLITCMIGTIMVCHMKGRGKKSDFSSPPAVHKLSKSLPLRRQVTVSADSSSSMNSNTPLVRITTRLSSNNDTHLLAGVSEYELPEDPKWEYPREKLTLGKPLGEGCFGQVVMAEAVGIDKDRPKDAATVAVKMLKDDATEKDLSDLVSEMEMMKMIGKHKNIINLLGACTQDGPLYVIVEYASKGNLREYLRTRRPPGMEYSFDINRIPEEQMTFKDLVSCTYQLARGMEYLASQKCIHRDLAARNVLVTETNVMKIADFGLARDINNIDYYKKTTNGRLPVKWMAPEALFDRVYTHQSDVWSFGVLMWEIFTLGGSPYPGIPVEELFKLLKEGHRMDKPGNCTNELYTMMTDCWRAVPSQRPTFKQLVEDLDRILTQTTNEEYLDLNNPLEQYSPSYPDTRSSCSSGDDSVFSPDAMPYDPCLPKSQHTNGTIKT
Take B1: the equilibrium dissociation constant (Kd) with recombinant human aFGF was 1.3 nM. In addition, the binding result with bovine brain aFGF and with human recombinant KGF was “binds” throughout.
